Assay results: the RNAGym collection of RNA variant scans (doi:10.1073/pnas.2313332121)

B1: TPR t1 (parent)
chain: GACCAAUCUGCCCUCAGAGCUCGAGAACAUCUUCGGAUGCAGAGGAGGCAGGCUUCGGUGGCGCGAUAGCGCCAACGUCCUCAACCUCCAAUGCAUCCCACCACAUGAUGAUGCCUGAAGAGCCUUGGUUUUUUG

Variants of: B1
Experiment: polymerase ribozyme fitness, log enrichment relative to wild type (log ratio); higher = more active; in vitro selection for triplet polymerase activity
In short: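 Genotype fitness is the logarithm of its enrichment divided by wild-type enrichment, using inverse-variance-weighted averages of replicates. That logarithm is base 2. Enrichment was measured by Illumina sequencing of input and output libraries from one triplicate in vitro selection round, with frozen incubation at −7 °C, on PCR-built, transcribed mutant libraries of each subunit of a heterodimeric triplet polymerase ribozyme, retaining genotypes with ≥10 input reads and ≥1 read per output.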

Variant	polymerase ribozyme fitness (log ratio)
G93A C124A	0.841
G93A G120A	0.446
G93A G120U	-0.0719
A91U U112G	-1.73
C98A A118U	-4.71
C97U C124G	1.72
C98U A108G	-6.36
C97U A105C	-4.58
A100U G110A	-1.52
A95U U109G G120C	-5.29
C97G G107C A111U	-7.12
G93U A108G G120U	-3.31
U96A C97A	-2.95
A90U A95U G113C G122U	-1.98
C94A U132A	-0.269
G93C A100C U130A	-2.66
C98U U112G	-3.32
C99U G113A G117A	-5.78
C99U G128U	-5.25
C94G G120A	0.357
A95G A119G	1.26
U96G A111U	-4.9
C94A A121C G122U U129A	-2.35
G93C G117U	-2.87

Variant	polymerase ribozyme fitness (log ratio)
G93C U132C	-1.62
C97G C114U	-5.14
A95G C124U U130G	0.565
C94G C115A A121C	0.289
G93A U131C	-0.974
G93A C114A A119U G122C	-3.4
C99U U112C G117A G128A	-5.01
U92A G113A U125C	-3.27
C94A A100G C114U C124G	-5.66
C97A U125A	-5.2
U92G C94U	-4.52
C98U U130G	-0.947
C97U G120U	-0.768
C97U G120C	0.554
C97U G120A	0.391
C97U U106G C123U	-2.04
C99U U129G	-3.83
U92G G120C	-1.74
A100U U130A	-0.606
A95U U116G A118G	-2.78
A91C A95U C101A	-4.41
A100U G120U	-1.23
C98U U126C	-1.99
U96A G120U G128U	-1.74

Variant	polymerase ribozyme fitness (log ratio)
A91C C123A	-1.1
A91C G120U	-1.5
G93C C104U A108G	-2.77
G93U C98U	-2.33
A91U G93C G113C G135U	-3.6
C99A C124A	-4.35
C97G C101U A121C	-2.97
A90U G113A	-1.1
A90U G113C	-2.53
G93A U112C	0.676
G93U C114A	-3.05
C97U C101U C102A	-4.12
U96A C123A	-1.45
C94A A118U	-0.204
A91U A121U	0.873
C97U G128A	-2.66
C99A G127A	-5.8
A91U G117A G120C G135C	-3.63
A91U U106G	-4.85
C97A C123U	-2.71
U92G U125A	-2.96
U96A G117U	-3.63
U92C U116C	-2.42
U96G C124A	1.39

Variant	polymerase ribozyme fitness (log ratio)
C99A A103C C104A	-4.54
G93C C94A	-1.68
C94A G117U U125A	-5.92
G93A U116A U130G	-4.69
C94A C97U G120U	-1.04
A95U U132A	-1.52
C99U A121U	-0.669
U96C C114G	-2.45
U96C C114U	-2.44
C97U A118U	-2.1
C98G C115A	-5.15
A91C U96G	-1.78
A100C A121C	0.337
U96G U130G	-1.28
A90U G117C A118C	-3.48
G93C C123A	-1.09
C97U U116C	-0.713
A95G C101A A111C	-1.91
C98A C123A	-3.79
U92G G110A	-5.46
U92A A121U U125G	-1.83
A95C C102A U133A G135C	-2.89
C101A C115A A121C U125A	-0.732
U96C U112A A121U	1.86

Variant	polymerase ribozyme fitness (log ratio)
A100C C102U	-5.66
A100C C102G	-4.98
C94A U125A	-0.423
C94A U125G	-1.1
A95G A111G	0.572
C99U C115U	-4.48
A95U U129C	-0.935
G93U G117C	-4.08
C94A C123G	-0.728
A95C G110U	-2.32
G93C G135A	-1.71
C97U U109A	-2.09
A91U U116G G120C G128U	-4.65
U92A C114A	-3.48
U92G G117C U129C U133C	-4.13
U96A U130C	-0.978
C99U C101A A121G C124G	-3.31
G93U U106A	-1.03
A91U G113U	-3.5
U96A A105U	-4.09
C99U U130A	-3.71
U96G C102G G113U	-5.71
A100C A111G	0.924
U92G U106A	-1.97

Variant	polymerase ribozyme fitness (log ratio)
C99U A119U U130A	-3.7
C94G U106A G135U	-1.54
C101A A121U	-0.684
C97U A103U	-5.3
C97G G120C	-4.64
A90U G110A	-4.07
A91G G113A	-1.95
G93A G110A	-1.24
G93A G110C	-5.32
C97A G117U	-5.67
U92G G93C G117C A121U	-5.65
C94G C114U	-3.17
G93A U109A	-5.41
A95C U131A	-0.642
G93A G135U	-2.04
C98A A121U	-2.52
G93A C115U	-1.29
G93A C101U A118G	-0.63
A90U A118U	-0.274
U96G A111G U125G	-1.74
A95C G113U G120C U125A	-3.79
A91G C115G	-4.4
C98U A111C	-2.13
C97G U130G	-4.67

Variant	polymerase ribozyme fitness (log ratio)
G93C C114A	-1.83
G93C C114U	-1.65
G93C U130C	-0.714
C98U U106A G110U G120C	-2.16
C97U C104U A111U C124A	-2.15
G93A G113U	-3.19
U96A G120U	-0.867
G93A G128U	-1.66
U92C U112G G113U U130C	-5.75
C94U A111G	0.127
G93U G110A G120U	-4.68
C94U U112A	1.59
C98U C114G	-5.02
C98U C114U	-3.88
C97U U112G U116A U129C	-4.3
U96G U109C	-4.85
G93A G122A	-1.4
A100C C104U A121G	1.96
A91C G127A	-2.15
U92A A121U	-0.332
U92A A121G	-0.696
A95U G113A G122A	-3.26
C101A A105G	-3.13
